Measured values reported in publication PMC10319725, “A mechanical-coupling mechanism in OSCA/TMEM63 channel mechanosensitivity” (Nature Communications, 2023).

Legend:
[1] = target: the molecule itself; assay: cryo-EM structure; purified AtOSCA3.1 in a detergent environment; two conformations (contracted, extended) in one data set
[2] = target: the molecule itself; assay: SEC; fluorescence-detection SEC (FSEC) of detergent-solubilised Expi293F cells (1% LMNG, 0.1% CHS; also DDM or GDN), Superose 6 increase 5/150 in TBS (20 mM Tris pH 8.0, 150 mM NaCl) with 10 uM LMNG, GFP fluorescence detected
[3] = target: the molecule itself; assay: cryo-EM structure; purified AtOSCA1.1 reconstituted in MSPE3D1 lecithin nanodiscs, TBS

B1: AtOSCA3.1 (natural protein, Arabidopsis thaliana)
chain: MEFGSFLVSLGTSFVIFVILMLLFTWLSRKSGNAPIYYPNRILKGLEPWEGTSLTRNPFAWMREALTSSEQDVVNLSGVDTAVHFVFLSTVLGIFACSSLLLLPTLLPLAATDNNIKNTKNATDTTSKGTFSQLDNLSMANITKKSSRLWAFLGAVYWISLVTYFFLWKAYKHVSSLRAQALMSADVKPEQFAILVRDMPAPPDGQTQKEFIDSYFREIYPETFYRSLVATENSKVNKIWEKLEGYKKKLARAEAILAATNNRPTNKTGFCGLVGKQVDSIEYYTELINESVAKLETEQKAVLAEKQQTAAVVFFTTRVAAASAAQSLHCQMVDKWTVTEAPEPRQLLWQNLNIKLFSRIIRQYFIYFFVAVTILFYMIPIAFVSAITTLKNLQRIIPFIKPVVEITAIRTVLESFLPQIALIVFLAMLPKLLLFLSKAEGIPSQSHAIRAASGKYFYFSVFNVFIGVTLAGTLFNTVKDIAKNPKLDMIINLLATSLPKSATFFLTYVALKFFIGYGLELSRIIPLIIFHLKKKYLCKTEAEVKEAWYPGDLSYATRVPGDMLILTITFCYSVIAPLILIFGITYFGLGWLVLRNQALKVYVPSYESYGRMWPHIHQRILAALFLFQVVMFGYLGAKTFFYTALVIPLIITSLIFGYVCRQKFYGGFEHTALEVACRELKQSPDLEEIFRAYIPHSLSSHKPEEHEFKGAMSRYQDFNAIAGV
notes: AtOSCA3.1 from Arabidopsis thaliana, UniprotKB Q9C8G5; also called contracted state of AtOSCA3.1; extended state of AtOSCA3.1; source: Expi293F infected by baculovirus, purified (DDM, TALON)
B1 was tested. Which “stoichiometry N” value [1] did it give?
Its value is 2.

B2: AtOSCA1.1-CGFP (natural protein, Arabidopsis thaliana)
chain: MATLKDIGVSAGINILTAFIFFIIFAFLRLQPFNDRVYFSKWYLRGLRSSPASGGGFAGRFVNLELRSYLKFLHWMPEALKMPERELIDHAGLDSVVYLRIYWLGLKIFAPIAMLAWAVLVPVNWTNNELELAKHFKNVTSSDIDKLTISNIPEGSNRFWAHIIMAYAFTIWTCYMLMKEYETVANMRLQFLASEGRRPDQFTVLVRNVPPDPDETVSELVEHFFLVNHPDNYLTHQVVCNANKLADLVSKKTKLQNWLDYYQLKYTRNNSQIRPITKLGCLGLCGQKVDAIEHYIAEVDKTSKEIAEERENVVNDQKSVMPASFVSFKTRWAAAVCAQTTQTRNPTEWLTEWAAEPRDIYWPNLAIPYVSLTVRRLVMNVAFFFLTFFFIIPIAFVQSLATIEGIEKVAPFLKVIIEKDFIKSLIQGLLAGIALKLFLIFLPAILMTMSKFEGFTSVSFLERRSASRYYIFNLVNVFLGSVIAGAAFEQLNSFLNQSPNQIPKTIGMAIPMKATFFITYIMVDGWAGVAGEILMLKPLIIYHLKNAFLVKTEKDREEAMNPGSIGFNTGEPQIQLYFLLGLVYAPVTPMLLPFILVFFALAYVVYRHQIINVYNQEYESAAAFWPDVHGRVITALIISQLLLMGLLGTKHAASAAPFLIALPVITIGFHRFCKGRFEPAFVRYPLQEAMMKDTLERAREPNLNLKGYLQDAYIHPVFKGGDNDDDGDMIGKLENEVIIVPTKRQSRRNTPAPSRISGESSPSLAVINGKEV
notes: AtOSCA1.1 from Arabidopsis thaliana, UniprotKB Q9XEA1; cDNA cloned into a C-terminally GFP-tagged BacMam vector; His8 and FLAG lie after GFP in the vector; also called Arabidopsis thaliana OSCA1.1; source: Expi293F, transfected, solubilised in LMNG-CHS, in cleared lysate; not shown: GFP, C-terminal, kept
With B2 as the protein, how does the “stoichiometry N” value [2] read?
The value was 2.

B3: AtOSCA1.1 in lipid nanodisc (natural protein, Arabidopsis thaliana)
chain: MATLKDIGVSAGINILTAFIFFIIFAFLRLQPFNDRVYFSKWYLRGLRSSPASGGGFAGRFVNLELRSYLKFLHWMPEALKMPERELIDHAGLDSVVYLRIYWLGLKIFAPIAMLAWAVLVPVNWTNNELELAKHFKNVTSSDIDKLTISNIPEGSNRFWAHIIMAYAFTIWTCYMLMKEYETVANMRLQFLASEGRRPDQFTVLVRNVPPDPDETVSELVEHFFLVNHPDNYLTHQVVCNANKLADLVSKKTKLQNWLDYYQLKYTRNNSQIRPITKLGCLGLCGQKVDAIEHYIAEVDKTSKEIAEERENVVNDQKSVMPASFVSFKTRWAAAVCAQTTQTRNPTEWLTEWAAEPRDIYWPNLAIPYVSLTVRRLVMNVAFFFLTFFFIIPIAFVQSLATIEGIEKVAPFLKVIIEKDFIKSLIQGLLAGIALKLFLIFLPAILMTMSKFEGFTSVSFLERRSASRYYIFNLVNVFLGSVIAGAAFEQLNSFLNQSPNQIPKTIGMAIPMKATFFITYIMVDGWAGVAGEILMLKPLIIYHLKNAFLVKTEKDREEAMNPGSIGFNTGEPQIQLYFLLGLVYAPVTPMLLPFILVFFALAYVVYRHQIINVYNQEYESAAAFWPDVHGRVITALIISQLLLMGLLGTKHAASAAPFLIALPVITIGFHRFCKGRFEPAFVRYPLQEAMMKDTLERAREPNLNLKGYLQDAYIHPVFKGGDNDDDGDMIGKLENEVIIVPTKRQSRRNTPAPSRISGESSPSLAVINGKEV
notes: AtOSCA1.1 from Arabidopsis thaliana, UniprotKB Q9XEA1; GFP removed by HRV3C protease; His8 and FLAG lie after GFP in the vector and were probably removed with it; Embedded in MSPE3D1 lecithin nanodiscs; also called extended state of AtOSCA1.1; not shown: GFP, C-terminal, cleaved
How did the “stoichiometry N” value [3] turn out when B3 was run?
Its value is 2.
